Our source for the oligomeric state (subunits per complex) and Kd values is publication PMC8699970.

Assay [1] addresses AjNLRC4 (native, on coelomocytes) (Apostichopus japonicus (endogenous in coelomocytes)). Description: cross-linking; sea cucumbers injected with V. splendidus for 30 min; coelomocytes treated with BS3 (5 mM, 4°C, 1 h); SDS-PAGE and western blotting with anti-AjNLRC4 antibodies. For orientation: A western blot detects proteins with antibodies after separation by electrophoresis.
Assay [2] deals with GST-tagged AjNLRC4-IN (intracellular fragment of AjNLRC4 with the NACHT domain) (Apostichopus japonicus). Description: MST; Monolith NT; labeled GST-AjNLRC4-IN (10 μM) constant, a range of concentrations of His-β-Actin; 50 mM Tris-HCl pH 7.8, 150 mM NaCl, 10 mM MgCl2, 0.05% Tween-20; 10 min incubation; 20% LED power, 80% MST power.

Turning to “AjNLRC4 (native, on coelomocytes) (receptor)”, the oligomeric state (subunits per complex) in assay [1] is 2.
For the substance His-tagged Ajβ-actin (natural protein), in assay [2], the Kd (commonly the free concentration of one partner at which half of the binding sites on the other are occupied at equilibrium, for simple one-to-one binding) turned out to be 5.87 µM.
